According to patent publication US20090215095A1 (INTRINSIC LIFESCIENCES, published 2009):
Ends that are not written are not given here.

What was measured:
[1] = biological target: Protein A affinity purified antibodies (anti-hepcidin rabbit sera, source serum not named); assay: competition ELISA with synthetic hepcidin as competitor
[2] = biological target: polyclonal anti-hepcidin rabbit sera (unpurified serum, source rabbit not named); assay: as above
[3] = biological target: affinity purified rabbit anti-mature, folded, bioactive hepcidin antibody (KST4); assay: as above
[4] = biological target: Protein A affinity purified KST4; assay: competitive inhibition ELISA, Protein A purified KST4 at 1:5000 (FIG. 7B)
Method: We collected serum from each of three immunized rabbits (KST3, KST4, KST5). KST3 and 4 are sera from rabbits immunized with hepcidin-KLH conjugates produced using EDC chemistry, while KST5 is sera from conjugates produced using DSS chemistry (FIG. 7A). […] Additional validation of the anti-mature, folded, bioactive hepcidin antibodies described above was performed and their utility in competitive ELISA examined in the presence of varying dilutions of bass serum (FIG. 8 A-C). Note increasing inhibition of signal with increasing amounts of synthetic hepcidin added to tracer. Note the effects of serum on competitive ELISA standard curve (FIG. 8 C) generated with data from (FIG. 8 B) between 10-100 ngs of mature, folded, bioactive hepcidin. […] FIG. 9 is an example of a routine standard curve where hepcidin competitor concentrations are expressed as ng/ml, rather than total ngs added to the competition.

- percent of signal competed away [1]: ~80%
- percent of signal competed away [2]: 65%
- percent of signal competed away [3]: > 90%
- IC50 [4]: ~2.5 ng/mL
Binder: GCRFCCNCCPNMSGCGVCCRF-OH (disulfide (positions not given here), also called synthetic hepcidin) [synthetic, mature, refolded, bioactive bass hepcidin]
